Patent US20110105407A1

Biological target: proMMP-9 (UniProt P14780)
Assay: cell-based or functional assay

Chain of proMMP-9 (P14780 20-707 limits assumed): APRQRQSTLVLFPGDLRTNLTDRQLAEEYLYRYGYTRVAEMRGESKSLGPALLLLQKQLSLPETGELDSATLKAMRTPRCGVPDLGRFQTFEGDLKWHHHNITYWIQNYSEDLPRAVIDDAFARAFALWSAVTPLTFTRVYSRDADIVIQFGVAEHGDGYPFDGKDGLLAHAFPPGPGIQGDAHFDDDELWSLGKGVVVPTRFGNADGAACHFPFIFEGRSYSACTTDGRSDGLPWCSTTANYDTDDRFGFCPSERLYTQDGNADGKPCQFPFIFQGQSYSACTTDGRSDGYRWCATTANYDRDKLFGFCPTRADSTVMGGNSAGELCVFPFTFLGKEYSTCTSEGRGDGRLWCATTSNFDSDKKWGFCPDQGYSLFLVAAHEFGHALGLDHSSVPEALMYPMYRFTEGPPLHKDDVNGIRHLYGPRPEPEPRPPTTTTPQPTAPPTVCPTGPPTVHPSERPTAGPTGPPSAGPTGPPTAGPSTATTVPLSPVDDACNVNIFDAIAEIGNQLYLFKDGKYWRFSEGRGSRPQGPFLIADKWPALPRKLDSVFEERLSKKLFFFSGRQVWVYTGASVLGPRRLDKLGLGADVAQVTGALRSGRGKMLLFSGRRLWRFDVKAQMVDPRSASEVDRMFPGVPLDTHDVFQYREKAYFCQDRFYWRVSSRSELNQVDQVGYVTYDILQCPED

release of proMMP-9 from RCC-53 into the medium (gelatinase zymography); concentration from which a decrease was seen: 10 ng/mL
Substance: TIMP-1-GPI (from UniProt P01033 24-207; P19256 202-237)
